From PMC2139755
Several values for one entry are separate records, joined by “and”; a condition that tells them apart may be missing. Identical values can stand only once. Like-named read-outs stand apart in the source and are kept apart here.

Key:
Assay in all cases: radioligand binding
[1] = target: receptor for IgE on rat basophilic leukemia cells (RBL-1 cells) (rat (endogenous in RBL-1)) (UniProt P12371)
[2] = target: receptor for IgE on rat basophilic leukemia cells (RBL-1 cells) (rat (endogenous in RBL-1)) (UniProt P12371); remark: listed apart in the source
[3] = target: receptor for IgE on rat basophilic leukemia cells (RBL-1 cells) (rat (endogenous in RBL-1)) (UniProt P12371); remark: listed apart in the source

Sequence of UniProt P12371 (P12371 24-245, chain 1 of 3): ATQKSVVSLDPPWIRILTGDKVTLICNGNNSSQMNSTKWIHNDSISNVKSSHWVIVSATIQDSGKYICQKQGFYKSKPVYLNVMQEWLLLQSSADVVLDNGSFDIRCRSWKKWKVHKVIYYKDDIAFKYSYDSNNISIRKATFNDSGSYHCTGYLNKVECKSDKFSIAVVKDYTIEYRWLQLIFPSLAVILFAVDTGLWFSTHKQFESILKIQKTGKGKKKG
Sequence of UniProt P12371 (P13386 whole entry, chain 2 of 3, further chain): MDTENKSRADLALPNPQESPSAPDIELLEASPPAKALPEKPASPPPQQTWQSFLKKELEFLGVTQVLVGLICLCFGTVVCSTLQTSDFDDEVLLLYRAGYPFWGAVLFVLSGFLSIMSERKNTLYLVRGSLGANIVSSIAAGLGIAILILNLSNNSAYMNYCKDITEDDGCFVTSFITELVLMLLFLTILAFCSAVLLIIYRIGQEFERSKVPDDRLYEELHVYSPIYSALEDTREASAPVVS
Sequence of UniProt P12371 (P20411 19-86, chain 3 of 3, further chain): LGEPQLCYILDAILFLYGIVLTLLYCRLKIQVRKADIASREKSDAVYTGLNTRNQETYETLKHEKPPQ

Work on “[125I]IgE (IR 162), 125I-labeled rat IgE myeloma protein (antibody)” yielded a Ka [1] of 1.2e+09 M⁻¹, a koff [1] of 1.7e-05 s⁻¹ and a kon [1] of 21000 M⁻¹ s⁻¹. It also gave a Ka [2] of 1.2e+10 M⁻¹, a koff [2] of 4.7e-06 s⁻¹ and a kon [2] of 57000 M⁻¹ s⁻¹. The Ka [3] was > 6e+09 M⁻¹ and 6e+09 M⁻¹, the half-life of dissociation [3] was 12 h and the koff [3] was 1.6e-05 s⁻¹ and 1.4e-05 s⁻¹. It also gave a percent of the labeled protein bound (active fraction) [3] of 70 to 80%, a relative binding at 15 min (% of no additive), Ca++ 2 mM [3] of 92% and a relative binding at 15 min (% of no additive), Ca++ 4 mM [3] of 88%. It also gave a relative binding at 15 min (% of no additive), Ca++ 8 mM [3] of 80%, a relative binding at 15 min (% of no additive), Ca++ and Mg++ 2, 2 mM [3] of 86% and a relative binding at 15 min (% of no additive), EDTA 4 mM [3] of 98%. For the same substance, the relative binding at 15 min (% of no additive), EDTA (4 mM) plus Ca++ 2 mM [3] was 78%, the relative binding at 15 min (% of no additive), EDTA (4 mM) plus Ca++ 4 mM [3] was 43% and the relative binding at 15 min (% of no additive), EDTA (4 mM) plus Mg++ 2 mM [3] was 85%. The relative binding at 15 min (% of no additive), EDTA (4 mM) plus Mg++ 8 mM [3] was 44%, the relative binding at 15 min (% of no additive), Mg++ 2 mM [3] was 93% and the relative binding at 15 min (% of no additive), Mg++ 4 mM [3] was 89%. The relative binding at 15 min (% of no additive), Mg++ 8 mM [3] was 82%, the relative binding at 20 min (% of no additive), Al2(SO4)3 0.7 x 10^-7 M [3] was 110% and the relative binding at 20 min (% of no additive), Al2(SO4)3 7.0 x 10^-7 M [3] was 108%. For the same substance, the relative binding at 20 min (% of no additive), Al2(SO4)3 70 x 10^-7 M [3] was 105%, the relative binding at 20 min (% of no additive), heparin 3.3 ug/ml [3] was 101% and the relative binding at 20 min (% of no additive), heparin 10 ug/ml [3] was 110%. For the same substance, the relative binding at 20 min (% of no additive), heparin 30 ug/ml [3] was 102%, the relative binding at 20 min (% of no additive), human serum albumin 0.3 mg/ml [3] was 93% and the relative binding at 20 min (% of no additive), phosphatidyl serine 12.5 ug/ml [3] was 105%. For the same substance, the relative binding at 20 min (% of no additive), phosphatidyl serine 50 ug/ml [3] was 116%, the relative binding at 20 min (% of no additive), phosphatidyl serine 200 ug/ml [3] was 135% and the relative binding at 60 min (% of no additive), Al2(SO4)3 0.7 x 10^-7 M [3] was 101%. For the same substance, the relative binding at 60 min (% of no additive), Al2(SO4)3 7.0 x 10^-7 M [3] was 97%, the relative binding at 60 min (% of no additive), Al2(SO4)3 70 x 10^-7 M [3] was 96% and the relative binding at 60 min (% of no additive), heparin 3.3 ug/ml [3] was 99%. It also gave a relative binding at 60 min (% of no additive), heparin 10 ug/ml [3] of 97%, a relative binding at 60 min (% of no additive), heparin 30 ug/ml [3] of 101% and a relative binding at 60 min (% of no additive), human serum albumin 0.3 mg/ml [3] of 99%. It also gave a relative binding at 60 min (% of no additive), phosphatidyl serine 12.5 ug/ml [3] of 112%, a relative binding at 60 min (% of no additive), phosphatidyl serine 50 ug/ml [3] of 114% and a relative binding at 60 min (% of no additive), phosphatidyl serine 200 ug/ml [3] of 121%. It also gave a relative binding at 61 min (% of no additive), Ca++ 2 mM [3] of 95%, a relative binding at 61 min (% of no additive), Ca++ 4 mM [3] of 91% and a relative binding at 61 min (% of no additive), Ca++ 8 mM [3] of 85%. The relative binding at 61 min (% of no additive), Ca++ and Mg++ 2, 2 mM [3] was 70%, the relative binding at 61 min (% of no additive), EDTA 4 mM [3] was 96% and the relative binding at 61 min (% of no additive), EDTA (4 mM) plus Ca++ 2 mM [3] was 88%. It also gave a relative binding at 61 min (% of no additive), EDTA (4 mM) plus Ca++ 4 mM [3] of 46%, a relative binding at 61 min (% of no additive), EDTA (4 mM) plus Mg++ 2 mM [3] of 97% and a relative binding at 61 min (% of no additive), EDTA (4 mM) plus Mg++ 8 mM [3] of 53%. For the same substance, the relative binding at 61 min (% of no additive), Mg++ 2 mM [3] was 70%, the relative binding at 61 min (% of no additive), Mg++ 4 mM [3] was 64% and the relative binding at 61 min (% of no additive), Mg++ 8 mM [3] was 62%.
